Measurements published in article PMC3724859 (2013).
Positions count from the first letter of the chain named. No end group written: not given here.

Legend:
[1] = target: Histidine phosphocarrier protein HPr (HPr^sc); experiment: not stated here (value quoted from ref. [19]; presumably ITC in several buffers); conditions: pH not stated; cited from earlier work
[2] = target: EINbsite peptide (active-site region of EIN^sc) (UniProt Q9KZP1); experiment: ITC (Auto-ITC200) in two buffers of different ionisation enthalpy; conditions: pH 7.0; 25 C; no added salt stated; 10 mM Mes (pH 7.0) and 10 mM Mops (pH 7.0); delta H ion 3.55 and 5.05 kcal/mol
[3] = target: EINosite peptide (HPr-contacting region of EIN^sc) (UniProt Q9KZP1); experiment: as above; conditions: pH 7.0; 25 C; no added salt stated; 10 mM Mes (pH 7.0) and 10 mM Mops (pH 7.0); delta H ion 3.55 and 5.05 kcal/mol
[4] = target: N-terminal domain of enzyme I, phosphomimetic mutant EINH186D H186D (UniProt Q9KZP1); experiment: as above; conditions: pH 7.0; 25 C; no added salt stated; 10 mM Mes (pH 7.0) and 10 mM Mops (pH 7.0); delta H ion 3.55 and 5.05 kcal/mol
[5] = target: N-terminal domain of enzyme I, wild type (EIN^sc) (UniProt Q9KZP1); experiment: as above; conditions: pH 7.0; 25 C; no added salt stated; 10 mM Mes (pH 7.0) and 10 mM Mops (pH 7.0); delta H ion 3.55 and 5.05 kcal/mol
[6] = target: EINsite peptides (Streptomyces coelicolor) (UniProt Q9KZP1); conditions: cited from earlier work
[7] = target: EINsc H186D EIN (Streptomyces coelicolor) (UniProt Q9KZP1); conditions: cited from earlier work
[8] = target: T1, EINbsite + EINosite equimolar peptide mixture (Streptomyces coelicolor, UniProt Q9KZP1, C-terminal amidation, equimolar mixture of both peptides); experiment: ITC
T1 chain 1: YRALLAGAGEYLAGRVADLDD
T1 chain 2: FVTEEGGPTSHSAILARA

[9] = target: T2, EINsc (enzyme I N-terminal domain) N-terminal domain (Streptomyces coelicolor, UniProt Q9KZP1); experiment: ITC
T2 chain: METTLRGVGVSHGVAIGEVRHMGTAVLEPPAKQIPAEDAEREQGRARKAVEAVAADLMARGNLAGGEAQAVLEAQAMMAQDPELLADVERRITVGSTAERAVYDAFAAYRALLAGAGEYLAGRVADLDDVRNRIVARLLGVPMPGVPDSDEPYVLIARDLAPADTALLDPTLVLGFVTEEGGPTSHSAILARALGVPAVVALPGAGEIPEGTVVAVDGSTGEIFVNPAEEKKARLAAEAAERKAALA

EINosite peptide = target: T3, EINosite peptide (Streptomyces coelicolor, C-terminal amidation); experiment: ITC
T3 chain: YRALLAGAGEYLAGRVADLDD

EINbsite peptide = target: T4, EINbsite peptide (Streptomyces coelicolor); experiment: ITC
T4 chain: FVTEEGGPTSHSAILARA-NH2

[10] = target: T5, EINH186D (enzyme I N-terminal domain) N-terminal domain (Streptomyces coelicolor, UniProt Q9KZP1); experiment: ITC
T5 chain: T2 chain with H186D

ITC dilution = target: the molecule itself; experiment: ITC dilution

## N-terminal domain of enzyme I, wild type (EIN^sc)
[1]
  n H: 0.52 protons

## Histidine phosphocarrier protein HPr (HPr^bs)
[2]
  n H: -0.31 protons
[3]
  n H: 0.28 protons
[4]
  n H: -0.31 protons
[5]
  n H: 0.17 protons

## HPrsc (from UniProt O50515)
[6]
  Kd: 16 µM
[7]
  Kd: 10 µM

B1: HPrbs (histidine phosphocarrier protein) (protein)
chain: MKTQQFTVIDPLGIHARPASQLVAKATPFASAIEVRTEEKAANLKSILGVMGLALKQGSQFTLYVEGEDEDQAFEALATLLTEMGLAQ
[8]
  Kd: 4.8 µM
[9]
  Kd: 1.9 µM
EINosite peptide
  Kd: 3 µM
EINbsite peptide
  Kd: 3.9 µM
[10]
  Kd: 2.9 µM
ITC dilution
  Kd: 6.5 µM
